From patent US6528283

Columns and labels:
Assay in all cases: cell-based or functional assay
Settings in all cases: scale: β-galactosidase activity units
[1] = biological target: GAL4 DNA-binding domain alone (empty pAS2-1 vector, negative control bait) (UniProt P04386)
[2] = biological target: hD52 bait (GAL4 DNA-binding domain fused to full-length hD52, pAS2-1hD52) (human)
[3] = biological target: hD53 bait (GAL4 DNA-binding domain fused to full-length hD53, pAS2-1hD53) (human)
[4] = biological target: hD54+ins2 bait (GAL4 DNA-binding domain fused to hD54+ins2, pAS2-1hD54+ins2) (human)
[5] = biological target: mD52 bait (GAL4 DNA-binding domain fused to full-length mD52, pAS2-1mD52) (mouse)
[6] = biological target: hD54-ins2 bait (GAL4 DNA-binding domain fused to hD54-ins2, pAS2-1hD54-ins2) (human)
[7] = biological target: mD52(1-95) bait (GAL4 DNA-binding domain fused to the N-terminal half of mD52, pAS2-1mD52(1-95)) (mouse)
[8] = biological target: mD52 bait (GAL4 DNA-binding domain fused to full-length mD52, pAS2-1mD52) (mouse); remark: listed apart in the source
[9] = biological target: mD52(95-185) bait (GAL4 DNA-binding domain fused to the C-terminal half of mD52, pAS2-1mD52(95-185)) (mouse)

Row | Substance | β-galactosidase activity, yeast two-hybrid (Y190) [1] | β-galactosidase activity, yeast two-hybrid (Y190) [2] | β-galactosidase activity, yeast two-hybrid (Y190) [3] | β-galactosidase activity, yeast two-hybrid (Y190) [4] | β-galactosidase activity, yeast two-hybrid (Y190) [5] | β-galactosidase activity, yeast two-hybrid (Y190) [6] | β-galactosidase activity, yeast two-hybrid (Y190) [7] | β-galactosidase activity, yeast two-hybrid (Y190) [8] | β-galactosidase activity, yeast two-hybrid (Y190) [9]
1 | GAL4 activation domain alone (empty pACT2 vector, negative control interactor) (from UniProt P04386 768-881) | 0 | 0 | 0.14 | 0 | 0 | 0 | 0.36 | 0.34 | 0.23
2 | hD52 interactor (GAL4 activation domain fused to hD52, pAD-GAL4hD52, library clone starting at nt 46) (from UniProt P04386 761-881) | 0.17 | 0.87 | 3 | 0.85 | 0.16 | 1.74 |  |  | 
3 | hD54+ins2 interactor (GAL4 activation domain fused to hD54+ins2, pACT2hD54+ins2) (from UniProt P04386 768-881) | 0 | 2.03 | 6.01 | 5.98 | 0.48 | 3.51 |  |  | 
4 | hD54-ins2 interactor (GAL4 activation domain fused to hD54-ins2, pACT2hD54-ins2) (from UniProt P04386 768-881) | 0.45 | 1.15 | 2.26 | 2.03 | 0.44 | 1.07 |  |  | 
5 | mD52(1-163) interactor (GAL4 activation domain fused to mD52 amino acids 1-163, pACT2mD52(1-163)) (from UniProt P04386 768-881) | 0 | 1.3 | 5.71 | 4.25 | 0.42 | 2.37 |  |  | 
